Experimental data reported in patent publication US20110086338A1.

Columns and labels:
[1] = target: T7-bio: coliphage T7 major capsid protein gp10A fused to the 15-amino acid biotinylation peptide, biotinylated in vivo by the host BLP (Enterobacteria phage T7); test: flow cytometry of carrier E. coli cells with phage at MOI 5 and streptavidin-QDs
[2] = target: T7-bio: coliphage T7 major capsid protein gp10A fused to the 15-amino acid biotinylation peptide, biotinylated in vivo by the host BLP (Enterobacteria phage T7); test: TEM of phage adsorbed to carrier E. coli cells, streptavidin-coated QDs in excess

Sequence of T7-bio: coliphage T7 major capsid protein gp10A fused to the 15-amino acid biotinylation peptide, biotinylated in vivo by the host BLP (Enterobacteria phage T7) (P19727 1-349, tags or fused parts left off): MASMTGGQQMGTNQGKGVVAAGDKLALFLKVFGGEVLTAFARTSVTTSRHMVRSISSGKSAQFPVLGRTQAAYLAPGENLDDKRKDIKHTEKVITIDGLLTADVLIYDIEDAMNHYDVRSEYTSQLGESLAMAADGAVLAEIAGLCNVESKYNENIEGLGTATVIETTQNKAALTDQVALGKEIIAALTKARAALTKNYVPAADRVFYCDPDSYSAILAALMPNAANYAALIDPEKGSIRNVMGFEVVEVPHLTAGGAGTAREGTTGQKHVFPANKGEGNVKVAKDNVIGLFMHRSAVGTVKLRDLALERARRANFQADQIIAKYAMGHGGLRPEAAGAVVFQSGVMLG

“streptavidin coated QD (QD 605), Quantum Dot Corporation (from UniProt P22629 37-163)” gave a fluorescence against the T7-myc control (orders of magnitude) [1] of 2, a percent of phage-bound cells with fluorescence above the threshold (P2) [1] of 94% and a percent of T7-bio phage with no QDs bound [2] of 7%. For the same substance, the percent of the total peptides displayed that carry a QD [2] was 0.5%.
